The target in the data set is Ronin (protein product of the cDNA clone from the human ES cell cDNA expression library) (UniProt Q96EK4).
Sequence of UniProt Q96EK4 (Q96EK4 whole entry): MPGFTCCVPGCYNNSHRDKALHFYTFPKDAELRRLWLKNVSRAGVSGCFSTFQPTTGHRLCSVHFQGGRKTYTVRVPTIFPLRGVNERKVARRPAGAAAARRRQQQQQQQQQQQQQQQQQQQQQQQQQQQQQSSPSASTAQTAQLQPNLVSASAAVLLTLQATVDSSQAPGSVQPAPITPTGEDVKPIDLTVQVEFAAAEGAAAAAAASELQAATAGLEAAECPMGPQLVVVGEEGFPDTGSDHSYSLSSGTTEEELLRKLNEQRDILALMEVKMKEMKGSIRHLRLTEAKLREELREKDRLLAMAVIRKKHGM

Consider “Caspase-3 (as used in the in vitro transcription/translation Caspase-3 cleavage assay)”, for which the “in vitro transcription/translation Caspase-3 cleavage assay” value is recorded as “proved to be an authentic target of Caspase-3 in further analyses”.
